B1: Subtilisin-chymotrypsin inhibitor-2A, P01053 (parent)
chain: MSSVEKKPEGVNTGAGDRHNLKTEWPELVGKSVEEAKKVILQDKPEAQIIVLPVGTIVTMEYRIDRVRLFVDKLDNIAQVPRVG

Variants of: B1
Conditions: Hordeum vulgare; pH 6.3; 25 °C; GdnHCl; Fluorescence; MES 50 mM; structure 2CI2; whole UniProt chain shown

MSSVEKKPEGVNTGAGDRHNLKTEWPELVGKSVEEAKKVILQDKPEAQIIVLPVGTIVTMEYRIDRVRLFVDKLDNIGQVPRVG [A78G]
ddG of mutation (higher = less stable): 1.88 kcal/mol
denaturant m value: 2.19 kcal/mol/M
denaturant midpoint (higher = more stable): 3.03 M

MSSVEKKPEGVNTGAGDRHNLKTEWPELVGKSVEEAKKVILQDKPEAQIIVLPVGTIVTMEYRIDRVRLFVDKLDNIAQVPRTG [V83T]
ddG of mutation (higher = less stable): 1.15 kcal/mol
denaturant m value: 1.79 kcal/mol/M
denaturant midpoint (higher = more stable): 3.41 M

MSSVEKKPEGVNTGAGDRHNLKTEWPELVGKSVEEAKKVILQDKPEAQIIVLPVGTIVTMEYRIDRVRLFVDKLDNIAQVPRGG [V83G]
ddG of mutation (higher = less stable): 3.5 kcal/mol
denaturant m value: 2.1 kcal/mol/M
denaturant midpoint (higher = more stable): 2.2 M

MSSVEKKPEGVNTGAGDRHNLKTEWPELVGKSVEEAKKVILQDKPEAQIIVLPVGTIVTMEYRIDRVRLFVDKLDNIAQVPRAG [V83A]
ddG of mutation (higher = less stable): 1.45 kcal/mol
denaturant m value: 1.95 kcal/mol/M
denaturant midpoint (higher = more stable): 3.25 M

MSSVEKKPEGVNTGAGDRHNLKGEWPELVGKSVEEAKKVILQDKPEAQIIVLPVGTIVTMEYRIDRVRLFVDKLDNIAQVPRVG [T23G]
ddG of mutation (higher = less stable): 1.16 kcal/mol
denaturant m value: 1.95 kcal/mol/M
denaturant midpoint (higher = more stable): 3.4 M

MSSVEKKPEGVNTGAGDRHNLKVEWPELVGKSVEEAKKVILQDKPEAQIIVLPVGTIVTMEYRIDRVRLFVDKLDNIAQVPRVG [T23V]
ddG of mutation (higher = less stable): 0.32 kcal/mol
denaturant m value: 1.67 kcal/mol/M
denaturant midpoint (higher = more stable): 3.83 M

MSSVEKKPEGVNTGAGDRHNLKAEWPELVGKSVEEAKKVILQDKPEAQIIVLPVGTIVTMEYRIDRVRLFVDKLDNIAQVPRVG [T23A]
ddG of mutation (higher = less stable): 0.85 kcal/mol
denaturant m value: 1.83 kcal/mol/M
denaturant midpoint (higher = more stable): 3.56 M

MSSVEKKPEGVNTGAGDRHNLKTEWPELVGKSVEEAKKVILQDKPEAQIIVLPGGTIVTMEYRIDRVRLFVDKLDNIAQVPRVG [V54G]
ddG of mutation (higher = less stable): 2.43 kcal/mol
denaturant m value: 2 kcal/mol/M
denaturant midpoint (higher = more stable): 2.75 M

MSSVEKKPEGVNTGAGDRHNLKTEWPELVGKSVEEAKKVILQDKPEAQIIVLPTGTIVTMEYRIDRVRLFVDKLDNIAQVPRVG [V54T]
ddG of mutation (higher = less stable): 1.03 kcal/mol
denaturant m value: 1.65 kcal/mol/M
denaturant midpoint (higher = more stable): 3.47 M

MSSVEKKPEGVNTGAGDRHNLKTEWPELVGKSVEEAKKVILQDKPEAQIIVLPVGTIVTMEYRIDRVRLFVDKLDNIAQGPRVG [V80G]
ddG of mutation (higher = less stable): 3.24 kcal/mol
denaturant m value: 2.61 kcal/mol/M
denaturant midpoint (higher = more stable): 2.33 M

MSSVEKKPEGVNTGAGDRHNLKTEWPELVGKSVEEAKKVILQDKPEAQIIVLPVGTIVTMEYRIDRVRLFVDKLDNIAQAPRVG [V80A]
ddG of mutation (higher = less stable): 1.51 kcal/mol
denaturant m value: 1.92 kcal/mol/M
denaturant midpoint (higher = more stable): 3.22 M

MSSVEKKPEGVNTGAGDRHNLKTEWPELVGKSVEEAKKVILQDKPEAQIIVLPVGTIVTMEYRIDRVRLFVDKLDNIAQTPRVG [V80T]
ddG of mutation (higher = less stable): 0.38 kcal/mol
denaturant m value: 1.63 kcal/mol/M
denaturant midpoint (higher = more stable): 3.8 M

MSSVEKKPEGVNTGAGDRHNLKTEWPELVGKSVEEAKKVILQDKPEAQIGVLPVGTIVTMEYRIDRVRLFVDKLDNIAQVPRVG [I50G]
ddG of mutation (higher = less stable): 3.52 kcal/mol
denaturant m value: 2.13 kcal/mol/M
denaturant midpoint (higher = more stable): 2.19 M

MSSVEKKPEGVNTGAGDRHNLKTEWPELVGKSVEEAKKVILQDKPEAQIAVLPVGTIVTMEYRIDRVRLFVDKLDNIAQVPRVG [I50A]
ddG of mutation (higher = less stable): 2.12 kcal/mol
denaturant m value: 2.22 kcal/mol/M
denaturant midpoint (higher = more stable): 3.91 M

MSSVEKKPEGVNTGAGDRHNLKTEWPELVGKSVEEAKKVILQDKPEAQIVVLPVGTIVTMEYRIDRVRLFVDKLDNIAQVPRVG [I50V]
ddG of mutation (higher = less stable): -0.08 kcal/mol
denaturant m value: 1.77 kcal/mol/M
denaturant midpoint (higher = more stable): 4.04 M

Source: FireProtDB (doi:10.1021/bi00017a003)
